The text below walks through data of patent publication US8722052B2, “Vaccinia virus protein A46 peptide and use thereof” (priority 2008, dated 2014).

The target of one experiment is T1, CD4-TLR4 (UniProt O00206+P06332).
T1 construct: forced dimerisation of TLR4 TIR domains in the absence of LPS (by overexpressing the fusion protein CD4-TLR4); CD4 (fusion partner); expressed in transfected cells; host or cells: HEK293_TLR4, transiently transfected with 50 or 100 ng CD4/TLR4-encoding plasmid
T1 sequence (P06332+O00206 with tags, fused parts or gaps): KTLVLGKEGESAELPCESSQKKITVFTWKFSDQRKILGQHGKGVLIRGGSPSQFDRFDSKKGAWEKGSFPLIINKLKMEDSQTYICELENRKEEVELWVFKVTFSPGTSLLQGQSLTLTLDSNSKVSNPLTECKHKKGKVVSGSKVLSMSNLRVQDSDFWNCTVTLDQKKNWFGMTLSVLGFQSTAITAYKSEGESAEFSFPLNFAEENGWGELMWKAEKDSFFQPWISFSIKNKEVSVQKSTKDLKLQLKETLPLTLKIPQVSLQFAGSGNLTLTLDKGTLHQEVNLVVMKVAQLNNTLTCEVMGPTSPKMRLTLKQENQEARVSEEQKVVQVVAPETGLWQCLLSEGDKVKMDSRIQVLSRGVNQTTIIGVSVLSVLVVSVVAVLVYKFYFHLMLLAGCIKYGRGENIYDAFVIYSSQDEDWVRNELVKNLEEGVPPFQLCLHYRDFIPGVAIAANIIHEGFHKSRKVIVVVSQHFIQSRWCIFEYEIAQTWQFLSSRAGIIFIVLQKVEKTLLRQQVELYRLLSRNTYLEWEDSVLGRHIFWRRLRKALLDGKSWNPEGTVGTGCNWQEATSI
The experiment is described as follows: ligand-independent NFκB activation by overexpressed CD4-TLR4 in HEK293_TLR4 cells. Format: cell-based. To be noted: 50 or 100 ng CD4/TLR4 plasmid, peptide 5 or 25 μM 2 or 9 hours after transfection. As for the experimental part: FIGS. 24A and B are bar charts showing the effect of A464 on ligand-independent TLR4 signalling in HEK293 cells. HEK293_TLR4 cells were seeded in 96 well plate (1.5×10^5 cells/ml) 24 hours before transfection with NFκB-luciferase and TK-Renilla reporter gene plasmids. NFκB activation was stimulated by transfecting either 50 or 100 ng of CD4/TLR4-encoding plasmid or by stimulating with 10 ng/ml LPS. The total amount of plasmid DNA transfected into the cells was made up to 230ng by adding pcDNA. A464 (SEQ ID NO. 20) was added to the cells at a concentration of 5 or 25 μM 2 hours (A) or 9 hours (B) after the transfection or LPS-stimulation. Cells were harvested and assayed for NFκB activation by reporter gene assay 24 hours post-transfection. No peptides were added to the control wells (black bars). Data is representative of two experiments, each performed in triplicate and is expressed as mean fold induction±s.d. relative to control levels;
HEK293 cells were transfected using GeneJuice® a proprietary non-toxic transfection reagent. 200 μl/well cells at a density of 1×10^5 cells/ml were seeded the day before transfection. 0.8 μl of GeneJuice was mixed with 9.2 μl of serum-free DMEM (SFM) per transfection and incubated for 5 min at room temperature before adding the appropriate amount of the plasmid DNA. […] Luciferase activity was analysed using a luminometer. […]

For another experiment, the system named is IRF3. As to the kind of experiment: LPS-induced IRF3 activation, IRF3-GAL4 reporter assay in HEK293_TLR4 cells. Format: cell-based, human. To be noted: peptide 1, 5 or 10 μM, 10 ng/ml LPS 6 h. As for the experimental part:
FIG. 26 is a bar chart showing the effect of A464 on LPS-induced IRF3 activation in HEK293 cells. HEK293_TLR4 cells were seeded in 96 well plate (1.5×10^5 cells/ml) 24 hours before transfection with the plasmid DNA. Cells were transfected with a plasmid encoding IRF3-GAL4, together with pFR-luciferase and TK-Renilla reporter gene plasmids. The total amount of plasmid DNA transfected into the cells was made up to 230 ng/well by adding pcDNA. A464 (SEQ ID NO. 20) was added to the cells at a concentration of 1, 5 or 10 μM the next day, and cells were stimulated with 10 ng/ml LPS 1 hour after treatment with the peptide for 6 hours. Cells were harvested and assayed for IRF3 activation by reporter gene assay. No peptides were added to the control wells (black bars). Data is representative of two experiments, each performed in triplicate and is expressed as mean fold induction±s.d. relative to control levels;
HEK293 cells were transfected using GeneJuice® a proprietary non-toxic transfection reagent. 200 μl/well cells at a density of 1×10^5 cells/ml were seeded the day before transfection. 0.8 μl of GeneJuice was mixed with 9.2 μl of serum-free DMEM (SFM) per transfection and incubated for 5 min at room temperature before adding the appropriate amount of the plasmid DNA. […] Luciferase activity was analysed using a luminometer.
Background: In a reporter assay the amount or activity of a reporter protein is the signal.

On to KYSFKLILAEYRRRRRRRRR [Peptide A464], for which the “inhibition of NFκB activated by forced dimerisation of TLR4 TIR domains (CD4-TLR4)” value in the experiment with CD4-TLR4 is “insensitive to inhibition”. Also, the “inhibition of LPS-induced IRF3 activation” value in the experiment on IRF3 is listed as “completely inhibited LPS-induced IRF3 activation at 1 μM”.
